Test results: patent US20120058906A1 (published 2012)
Blank lines part the entries; values can stand above or below the binder they belong to.

Legend:
[1] = molecular target: T1, rHuman Notch-1/Fc Chimera, CF (R&D Systems Cat#3647-TK) (human, UniProt P46531 19-526); assay: MSD ECL titration, Fab 0.1 nM, blank 201
T1 construct: Bought Fc chimera; Fc part of the bought chimera not given

[2] = molecular target: T2, rHuman CD44/Fc Chimera, CF (R&D Systems Cat#3660-CD) (human, UniProt P16070 21-220); assay: MSD ECL titration, Fab 0.1 nM, blank 201
T2 construct: Bought Fc chimera; Fc part of the bought chimera not given

[3] = molecular target: T3, rHuman IGF-1 sR (insulin-like growth factor-1 soluble receptor), CF (R&D Systems Cat#391-GR) (human, UniProt P08069 31-932); assay: MSD ECL titration, Fab 0.1 nM, blank 201
T3 construct: Bought soluble receptor; also called IGF-R1

[4] = molecular target: T4, rHuman P-Cadherin/Fc Chimera, CF (R&D Systems Cat#861-PC) (human, UniProt P22223 108-654); assay: MSD ECL titration, Fab 0.1 nM, blank 201
T4 construct: Bought Fc chimera; Fc part of the bought chimera not given

[5] = molecular target: T5, rHuman Erythropoietin R/Fc Chimera, CF (R&D Systems Cat#963-ER) (human, UniProt P19235 25-250); assay: MSD ECL titration, Fab 0.1 nM, blank 201
T5 construct: Bought Fc chimera; also called EPO R/Fc; EPOR; Fc part of the bought chimera not given
T5 sequence: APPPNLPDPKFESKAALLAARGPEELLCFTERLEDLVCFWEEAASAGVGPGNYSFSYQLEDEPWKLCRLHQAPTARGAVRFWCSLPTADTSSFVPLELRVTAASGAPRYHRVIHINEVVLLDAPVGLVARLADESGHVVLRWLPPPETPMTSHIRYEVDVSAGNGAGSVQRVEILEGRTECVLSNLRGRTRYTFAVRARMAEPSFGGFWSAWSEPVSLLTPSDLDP

[6] = molecular target: T6, Recombinant Human DLL4 (R&D Systems Cat#1506-D4/CF) (human, UniProt Q9NR61 27-524); assay: MSD ECL titration, Fab 0.1 nM, blank 201
T6 construct: Bought recombinant protein; also called rHuman DLL4; delta-like protein 4

[7] = molecular target: T7, rHuman ErbB2/Fc Chimera, CF (R&D Systems Cat#1129-ER) (human, UniProt P04626 23-652); assay: MSD ECL titration, Fab 0.1 nM, blank 201
T7 construct: Bought Fc chimera; also called HER2/neu; Fc part of the bought chimera not given

[8] = molecular target: T8, rHuman EGF R/Fc Chimera, CF (R&D Systems Cat#344-ER) (human, UniProt P00533 25-645); assay: MSD ECL titration, Fab 0.1 nM, blank 201
T8 construct: Bought Fc chimera; Fc part of the bought chimera not given

[9] = molecular target: T9, rHuman HGF R/c-MET/Fc Chimera, CF (R&D Systems Cat#358-MT/CF) (human, UniProt P08581 25-932); assay: MSD ECL titration, Fab 0.1 nM, blank 201
T9 construct: Bought Fc chimera; also called HGF R/Fc; Fc part of the bought chimera not given

[10] = molecular target: T10, rHuman IGF-1 sR (insulin-like growth factor-1 soluble receptor), CF (R&D Systems Cat#391-GR) (human, UniProt P08069 31-932); assay: ECL (MSD multi-spot), antigen on plate, Fab 50 nM
T10 construct: Bought soluble receptor; also called IGF-R1

[11] = molecular target: T11, rHuman P-Cadherin/Fc Chimera, CF (R&D Systems Cat#861-PC) (human, UniProt P22223 108-654); assay: ECL (MSD multi-spot), antigen on plate, Fab 50 nM
T11 construct: Bought Fc chimera; also called CDH3; not shown: Fc of the bought chimera

[12] = molecular target: T12, rHuman Erythropoietin R/Fc Chimera, CF (R&D Systems Cat#963-ER) (human, UniProt P19235 25-250); assay: ECL (MSD multi-spot), antigen on plate, Fab 50 nM
T12 construct: Bought Fc chimera; also called EPO R/Fc; Epo R; not shown: Fc of the bought chimera
T12 sequence: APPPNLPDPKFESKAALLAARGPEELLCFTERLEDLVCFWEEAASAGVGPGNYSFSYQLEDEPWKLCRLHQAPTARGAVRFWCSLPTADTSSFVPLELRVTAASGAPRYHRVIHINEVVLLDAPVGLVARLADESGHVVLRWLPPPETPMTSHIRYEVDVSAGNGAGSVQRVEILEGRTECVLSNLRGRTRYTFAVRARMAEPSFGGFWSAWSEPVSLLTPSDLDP

[13] = molecular target: T13, Recombinant Human DLL4 (R&D Systems Cat#1506-D4/CF) (human, UniProt Q9NR61 27-524); assay: ECL (MSD multi-spot), antigen on plate, Fab 50 nM
T13 construct: Bought recombinant protein; also called delta-like protein 4

[14] = molecular target: T14, rHuman ErbB2/Fc Chimera, CF (R&D Systems Cat#1129-ER) (human, UniProt P04626 23-652); assay: ECL (MSD multi-spot), antigen on plate, Fab 50 nM
T14 construct: Bought Fc chimera; also called HER2/neu; not shown: Fc of the bought chimera

[15] = molecular target: T15, rHuman Notch-1/Fc Chimera, CF (R&D Systems Cat#3647-TK) (human, UniProt P46531 19-526); assay: ECL (MSD multi-spot), antigen on plate, Fab 50 nM
T15 construct: Bought Fc chimera; not shown: Fc of the bought chimera

[16] = molecular target: T16, rHuman Erythropoietin R/Fc Chimera, CF (R&D Systems Cat#963-ER) (human, UniProt P19235 25-250); assay: ECL (MSD Multi-Spot) binding assay, antigen spotted on plate; Fab 30 nM; blank spot 213
T16 construct: Bought Fc chimera; also called EPO R/Fc; Epo R; Fc part of the bought chimera not given
T16 sequence: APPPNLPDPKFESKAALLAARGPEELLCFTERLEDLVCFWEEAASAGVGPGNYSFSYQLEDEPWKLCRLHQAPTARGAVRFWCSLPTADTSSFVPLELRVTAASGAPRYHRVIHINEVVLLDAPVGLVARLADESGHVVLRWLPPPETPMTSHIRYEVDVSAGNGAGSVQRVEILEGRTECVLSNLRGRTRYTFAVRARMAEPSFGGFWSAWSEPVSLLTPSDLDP

[17] = molecular target: T17, Recombinant Human DLL4 (R&D Systems Cat#1506-D4/CF) (human, UniProt Q9NR61 27-524); assay: as above
T17 construct: Bought recombinant protein; also called delta-like protein 4; rHuman DLL4

[18] = molecular target: T18, rHuman CD44/Fc Chimera, CF (R&D Systems Cat#3660-CD) (human, UniProt P16070 21-220); assay: as above
T18 construct: Bought Fc chimera; Fc part of the bought chimera not given

[19] = molecular target: T19, rHuman P-Cadherin/Fc Chimera, CF (R&D Systems Cat#861-PC) (human, UniProt P22223 108-654); assay: as above
T19 construct: Bought Fc chimera; also called CDH3; Fc part of the bought chimera not given
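Note: blank spot per well as comparator with Hit at signal to blank ratio of 4 or more.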

ECL signal [1]: 378
ECL signal [2]: 323
ECL signal [3]: 241
ECL signal [4]: 235
ECL signal [5]: 373
ECL signal [6]: 317
ECL signal [7]: 306
ECL signal [8]: 311
ECL signal [9]: 286
B1: Fab VH1-46_IGHD6-6*01_IGHJ1*01 & L6_IGKJ1*01 (Fab, V domains shown)
VH: QVQLVQSGAEVKKPGASVKVSCKASGYTFTSYYMHWVRQAPGQGLEWMGIINPSGGSTSYAQKFQGRVTMTRDTSTSTVYMELSSLRSEDTAVYYCAREEYSSSSAEYFQHWGQGTLVTVSS
VL: not shown
notes: Expressed in E. coli as Fab: heavy chain with CH1 plus Flag and His tags from Plasmid A, kappa light chain constant region from Plasmid C; also called Fab No. 1

ECL signal [10]: 355 ECL signal
ECL signal [11]: 431 ECL signal
ECL signal [12]: 527 ECL signal
ECL signal [13]: 37700 ECL signal
ECL signal [14]: 384 ECL signal
ECL signal [15]: 477 ECL signal
B2: Fab VH1-46_IGHD6-6*01_IGHJ1*01_S102A_S103P_S104F & L6_IGKJ1*01_S28P (Fab, V domains shown)
VH: QVQLVQSGAEVKKPGASVKVSCKASGYTFTSYYMHWVRQAPGQGLEWMGIINPSGGSTSYAQKFQGRVTMTRDTSTSTVYMELSSLRSEDTAVYYCAREEYAPFSAEYFQHWGQGTLVTVSS
VL: EIVLTQSPATLSLSPGERATLSCRASQPVSSYLAWYQQKPGQAPRLLIYDASNRATGIPARFSGSGSGTDFTLTISSLEPEDFAVYYCQQRSNWPPWTFGQGTKVEIKR
notes: Fab

ECL signal [16]: 325
ECL signal [17]: 736
ECL signal [18]: 484
ECL signal [19]: 440
B3: Fab VH6-1_IGHD3-3*01_IGHJ4*01 & V4-3_IGLJ4*01 (Fab, V domains shown)
VH: QVQLQQSGPGLVKPSQTLSLTCAISGDSVSSNSAAWNWIRQSPSRGLEWLGRTYYRSKWYNDYAVSVKSRITINPDTSKNQFSLQLNSVTPEDTAVYYCAREYYDFWSGYYTDYFDYWGQGTLVTVSS
VL: QPVLTQPTSLSASPGASARLTCTLRSGINLGSYRIFWYQQKPESPPRYLLSYYSDSSKHQGSGVPSRFSGSKDASSNAGILVISGLQSEDEADYYCMIWHSSASFVFGGGTQLIIL
notes: Tested as a Fab made in E. coli; also called IGHV6-1*01
